In the nanobody polyreactivity screen of Harvey et al. (2022):

Assay: yeast display, Sf9 membrane polyspecificity reagent, FACS + sequencing; frameworks hold sequencing errors
Method in brief: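 A nanobody's polyreactivity label depends on the gate it was sorted from. Yeast display cells were stained with 10% biotinylated, detergent-solubilized Sf9 membrane reagent for 1 hour at 4 °C, enriched on streptavidin microbeads and sorted by FACS. The low and high (top ~1%) gates were set on anti-HA fluorescence for expression and streptavidin fluorescence for reagent binding.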

Sequence: QVQLVESGGGLVQAGGSLRLSCAASGSIFLPYAMGWYRQAPGKERELVAAITRRGTSTYYADSVKGRFTISRDNAKNTVYLQMNSLKPEDTAVYYCAAEIKYWYSAYAYGYWGQGTQVTVSS
- polyreactivity (PSR sort gate): high polyreactivity

Sequence: QVQLVESGGGLVQAGGSLRLSCAASGGIFRGNAMGWYRQAPGKERELVAAISSSGGSTYYADSVKVRFTISRDNSKYTVYLEMYSLKPEDTAVYYCAAYAGSFYYWGQGTQVTVSS
- polyreactivity (PSR sort gate): high polyreactivity

Sequence: QVQLVESGGGLVQAGGSLRLSCAASGSTFGRYALGWYRQAPGKEREFVAAISWSGGSTYYADSVKGRFTISRDNAKNTVYLQMNSLKPEDSAVYYCAASYIYQSSWYHRMYYWGQGTQVTVSS
- polyreactivity (PSR sort gate): high polyreactivity

Sequence: QVQLVESGGGLVQAGGSLRLSCAASGSIFTENAMGWYRQAPGKERELVAAIRWDDGNTYYADSVKGRFTISRDNAKNTVYLQMNSLKTEDTAVYYCNADKWSSTDDWLYDYWGQGTQVTVSS
- polyreactivity (PSR sort gate): low polyreactivity

Sequence: QVQLVESAGGLVQAGGILRLSCAASGRTFEGNPMGWYRQAPGKERELVAAITSGGRTNYADSVKGRLTISRDNAKNTVYLQMNSLKPEDTAVYYCAATSTYRSYREYDYWGQGTQVTVSS
- polyreactivity (PSR sort gate): low polyreactivity

Sequence: QVQLVESGGGLVQAGGSLRLSCAASGITFVWYDMGWYRQAPGKEREFVAVISKRGGSTYYADSVKGRFTISRDNAKNTVYLQMNSLKPEDTAVYYCAASYNLYRRYYYWGQGTQVTVSS
- polyreactivity (PSR sort gate): high polyreactivity

Sequence: QVQLVESGGGLVQAGGSLRLSCAASGSIFYVYAMGWYRQAPGNERELVADITTRDGDTYYADSVKGRFTISRDNAKNTVYFQMNSLKPEDTAVYYCAADLNAYPQRAYDYWGQGTQVTVSS
- polyreactivity (PSR sort gate): low polyreactivity

Sequence: QVQLVESGGGLVQAGGSLRLSCAASGFTFYANAMGWYRQAPGKERELVAAISRGVSTTYADSVKGRFTISRDNAKNTVYLQMNRLKPEDTAVYYCAADGNVIAQGYDYWGQGTQVTVSS
- polyreactivity (PSR sort gate): low polyreactivity

Sequence: QVQLVESGGGLVQAGGSLRLSCAASGSTFGLYAMGWYRQAPGKEREFVAAISYSGSSTYYADSVKGRFTISRDNAKNTVYLQMNSLKPSDTAVYYCAARRSEHGYTYWGQGSQVTVSS
- polyreactivity (PSR sort gate): high polyreactivity

Sequence: QVQLVESGGGLVPAGGSLRLSWAASGFIFGYNVMGWYRQAPGKVRELVAAISRGGSTNYADSVKGRFTISRDNAKKTVSGQMTSLKPEATAVYDCAARRYRPAAFDSWGQGTQVTVSS
- polyreactivity (PSR sort gate): high polyreactivity

Sequence: QVQLVESGGGLVQAGGSLRLSCAASGRTFNWYAMGWYRQAPGKERELVAAIRVNGGITYYADSVKGRFTISRDNAMNTVYLQMNSLKPEDTAVYYCAVYSRQGLGYWGQGTQVTVSS
- polyreactivity (PSR sort gate): high polyreactivity

Sequence: QVQLVESGGGLVQAGGSLRLSCAASGRIFTGNAMGWYRQAPGKERELVAAITGRGGNTYYADSVKGRFTISRDNAKNTVYLQMNSLKPEDTAVYYCAKVFFHTPIVPEFEYWGQGTQVTVSS
- polyreactivity (PSR sort gate): low polyreactivity

Sequence: QVQLVESGGGLVQAGGSLRLSCAASGRTFLSYMGWYRQAPGKERELVAISRSGTSTYYADSVKGRFTISRDNAKNTVYLQMNSLKPEDTAVYYCAAETNTWYLFDYWGQGTQVTVSS
- polyreactivity (PSR sort gate): high polyreactivity

Sequence: QVQLVESGGGLVHAGGSLRLSCAASGRTFTRNAMGWYRQAPGKERELVAAISISGGRTYYADSVKGRFTISRDNAKNTVSLQMNSLKPEDTAVYYCANVTTSKYDYDYWGQGTQVTVSS
- polyreactivity (PSR sort gate): high polyreactivity

Sequence: QVQLVESGGGLVQAGGSLRLSCAASGSTFSPYAMGWYRQAPGKERELVANITISGGSTYYADSVKGRFTISRDNAKNTVYLQMNSLKPEDTAVYYCNADSLIRWLFTVVIFDYWGQGTEVTVSS
- polyreactivity (PSR sort gate): low polyreactivity

Sequence: QVQLVESGGGLVQAGGSLRLTCAASGRTFAIYAMGWYRQAPRKEREFFDAISWSGGDTYYADSVKGRFTISRDNAKNTVYLQMNSLKAEDTAVYYCAARYIDYEGRDLQYELDYWGQGTQVSVSS
- polyreactivity (PSR sort gate): low polyreactivity

Sequence: QVQLVESGGGLVQAGGSLRLSCAASGFTLIDYAMGWYRQAPGKERELVAAISGSGGRTYYADSVKGRFTISRDNAKNTVYLQMNSLKPEDTAVYYCAAGRRHVYKRRRYDYWGQGTQVTVSS
- polyreactivity (PSR sort gate): high polyreactivity

Sequence: QVQLVESGGGLVQAGGSLRLSCAASGYTLVGYAMGWYRQAPGKEMELVAVISGSGGSTRYADSVKGRFTISRDNAKYTVYLQMNSLNPEDTAVYYCAARQPRTQAVYEGYYWGQGTQVTVSS
- polyreactivity (PSR sort gate): high polyreactivity

Sequence: QVQLVESGGGLVQAGGSLRLSCAASGRIFGWYAMGWYRQAPGKERELVAAISSGGRTNYADSVKGRFTISRDNAKNTVYLQMNSLKPEDTAVYYCNARRTYLPYKFGYDYWGQGTQVTVSS
- polyreactivity (PSR sort gate): low polyreactivity

Sequence: QVQLVESGGGLVQAGGSHRLSCAASGRIFDKYAMGWYRQAPGKERELVATITSSGGSTYYADSVKGRFTISRDNAKNTVYLQMNSLKPEDTAVYYCAALDRTGWGYDYWGQGTQVTVSS
- polyreactivity (PSR sort gate): low polyreactivity

Sequence: QVQLVESGGGLGQAGGSLRLSCAASGSIFQPYAMGGYRQAPGKERELVAAISSSGGSTTYADSVKGRFTISRDNAKNTVYLQMNSLKPEDTAVYYCAAEYDGPYTWVDYFYHYGYWGQGTQVTVSS
- polyreactivity (PSR sort gate): low polyreactivity

Sequence: QVQLVESGGGLVQAGGSLRLSCAASGRIFRNNAMGWYRQATGKERELVATISSRGGSTYYADSVKGRFTISSDNAKNNVYLQMNSLKPEDTAVYYCNKRWLHWAGYDYWGQGTQVTVSS
- polyreactivity (PSR sort gate): high polyreactivity

Sequence: QVQLVESGVGLVQAGGSLRLSCAASGCIFIKYAMGWSRQAPGKERELVASITISSGRTYYADSVKGRFTISRDNAKNTVYLQMISLKPEDTAVYYCAAVSLWYSAYEYWGQGTQVTVSS
- polyreactivity (PSR sort gate): high polyreactivity

Sequence: QVQLVESGGALVQAGVSLRLSCSASGSTFTKYAIRWYRQAPGKERELVAAITRGGSTTYADSVKGRFTISRDNAKNTVYLQMNSLKPEDTAVYFCNAQYQSGYYTSYPERFDYRGQGTQVTVSS
- polyreactivity (PSR sort gate): low polyreactivity

Sequence: QVQLVESGGGLVQAGGSLRLSSAASGSIFYGNAMGWYRQAPGKESELVAAISARGGSTNYADSVKGRFTISRDNAKITVYLQMNSLIPEDTAVYYCAAKVRVWYYRMDSWGQGTQVTVSS
- polyreactivity (PSR sort gate): low polyreactivity

Sequence: QVQLVVSGGGLVQAGGSLRLSCAASGRIFRAYAMGWYRQAPGQERELVADITSGSGSTYYADSVKGRFTISRDNAKNTVYLQMNSLKPEDTAVYYCAADVFIRDWEYYYWGQGTQVTVSS
- polyreactivity (PSR sort gate): low polyreactivity

Sequence: QVQLVESAGGLVQAGGSLRIICAASGRIFSVNSMGGYRQAPGKERELDATIRTDGTTNYADSVKGRFTISRDNAKNTVYLQMNSLQPGDPAVYYCNARIPYSWRYGYWGQGTQVTVSS
- polyreactivity (PSR sort gate): high polyreactivity

Sequence: QVQLVESGGGLVQAGGSLRLSCAASGLTFWKNVMGWYRQAPGKERELVAAISWSGDSTYYADSVKGRFTISRDNAKNTVYLQMNSLKPEDTAVYYCAARYVSRYWAGRYPTRQRDSWGQGTQVTVSS
- polyreactivity (PSR sort gate): high polyreactivity

Sequence: QVHLVESGGGLVQAGGSLRLSCAASGSIFYPYAMGWYRQAPGKERELVAAISGRGGNTYYADSVKGRFTISRDNAKNTVYFQMNSLKPEDTAVYYCAADRYYWSLYGYDYWGQGTQVTVSS
- polyreactivity (PSR sort gate): high polyreactivity

Sequence: QVQLVESVGGLVQAGGSLRLSCAASGSTFRYYAMGWYRQAPGKERELVAAITGSGGSTYYADSVKGRFTISRDNAKNTVYLQMNSLKPEDTAVYYCAAYCSRSILRYDSWGQGTQVTVSS
- polyreactivity (PSR sort gate): high polyreactivity

Sequence: QVQLVESGGGLVQAGGSLRLSCAASGRIFAYYAMGWYRQAPGKERELVAAISRSGGSTYYADSVKGRFTISRDNAKNTVYLLMNSLKPEDTAVYYCNVVRVRYYWWEFDYWGQGTQVTVSS
- polyreactivity (PSR sort gate): high polyreactivity

Sequence: QVQLVESGAGLVQAGGSLRLSCAASGRIFADYAMGWYRQAPGKERELVADIRQSGGRTYYADSVKGRFTISRDNAKNTVYLQMNSLKPEDTAVYYCATDYGSWGDYSGKYDYWGQGTQVTVSS
- polyreactivity (PSR sort gate): low polyreactivity

Sequence: QVQLVESGGGLVQAGGSLRLSCAASGSTFWDYAMGWYRQAHGKERELVAAITDSGGSTYYADSVKGRFTISRDNAKNTVYLQMNSLKPEDTAVYYCAAEAYIWWAWEYEYWGQGPQVTVSS
- polyreactivity (PSR sort gate): high polyreactivity

Sequence: QVQLVESGGGLVQAGGSLRLSCAASGRTFGYYAMGWYRQAPGKERELVAAISYSSTITYYAGSVKGRFTISRDNAKNTVYLQMNSLKPEDTAVYYCAAYSTRGVEYDYWGQGTQVTVSS
- polyreactivity (PSR sort gate): high polyreactivity

Sequence: QVQLIESGGGLVQAGGSLRLSCAASGSTGIYAMGWYRQAPGKERELVAAITRRAGSTYYADSVKGRFTISRDNAKNTVYLQMNSLKPEDTAVYYCAAKGLWWYGTYVSYEYWGKGTQVTVSS
- polyreactivity (PSR sort gate): low polyreactivity

Sequence: QVQLVESGGGLVQAGGSLRLSCAASGSTFSYYTMGWYRQAPGKERELVAAISFSGGSTYYADSVKGRFTISRDNAKNTVYLQMNSLKPEDTAVYYCAAKGYVGRYDYWGQGTQVTVSS
- polyreactivity (PSR sort gate): high polyreactivity

Sequence: QVQLVESGGGLVQAGGSLRLSCAASGSTFTPNAMVWYRQAPGKERELVAAINWSDSSTYYADSVKGRFTISRDNAKNTVYLQMNSLKPEDTAVYYCAAAAQYGQLQVPVYYWGQGTQVTVSS
- polyreactivity (PSR sort gate): low polyreactivity

Sequence: QVQLVESGGGLVQAGGSLRLSCAASGSTFYYYAMGWYRQAPGKERELVAAIDWSGESTYYADSVKGRFTISRDNAKNTVYLQMNSLKPEDTAVYYCAADLGYPWGYVLFYKQSFSYYYWGQGTQVTVSS
- polyreactivity (PSR sort gate): low polyreactivity

Sequence: QVQLVESGGGLVQAGGSLRLSCAASGSIFIYYAMGWYRQAPGKERELVAAIDYSGDSTYYADSVKGRFTISRDNAKNTVYLQMNSLKPEDTAVYYCAVYYAGWGDYWGQGTQVTVSS
- polyreactivity (PSR sort gate): low polyreactivity

Sequence: QVQLVESGGGLVQAGGSLRLSCAASGRTFYYNGMGWYRQAPGKERELVATITNGGSTNYADSVKGRFTISRDNAKITVYLQMNSLKPEETAVYYCAKTLASDCYDYWGQGTQVTVSS
- polyreactivity (PSR sort gate): low polyreactivity

Sequence: QVQLVESGGGLVQAGGSLRLSCAASGRTFTQNAMGWYRQAPAKERELVAAISKSGDRTYYADSVKGRFTISRDNAKNTVYLQMNSLKPEDTAVYYCAADTYVSYYWWQTEDDYWGQGTQVTVSS
- polyreactivity (PSR sort gate): high polyreactivity

Sequence: QVKLVESGGGLVQAGGSLRLSCAASGFTFEYYAMGWYRQAPGKERELVAAIRSDSGTNYADSVKGRFTISRDNAKNTVYLQMNSLKPEDTAVYYCAAPTVVLIDYDYWGQGTQVTVSS
- polyreactivity (PSR sort gate): low polyreactivity

Sequence: QVQLVESGGGLVQAGGSLRLSCAASGGTIAFNGMGWYRQAPGKERELVAAITWRSGSTYYADSVKGRFTISRDNAKNTVYLQMNSLKPEDTAVYYCAARLYRYTPFDYWGQGTQVTVSS
- polyreactivity (PSR sort gate): high polyreactivity
